Laboratory results: patent US20190161551A1 (Regeneron, published 2019)

B1: H4H9780P (antibody, human IgG4 S228P, kappa, V domains shown)
VH: QVQLVESGGGVVQPGRSLRLSCAASGFSFSSFGMHWVRQAPGKGLEWVSVISYDGINTYYTDSVKGRFTISRDNSKNTLYLQMNGLRAEDTALYYCVQGSIGTVFEYWGQGTLVTVSS
VL: DIQMTQSPSSLSASVGDRVTITCRASQGISNYLAWYQQKPGKVPKLLIYAASTLQSGVPSRFGGSGSGTDFTLTISSLQPEDVATYYCQKYTSAPFTFGPGTKVDIKR
notes: Fully human anti-human TrkB agonist antibody, human IgG4 Fc; also called H4H9780P-L1
B2: H4H9814P (antibody, human IgG4 S228P, kappa, V domains shown)
VH: EVQLVESGGGLVQPGGSLKLSCTASGFTFSGSVIHWVRQASGKGLEWIGRIRNKANSYATAYGASVTGRFTISRDDSKNTAYLQMNSLKTEDTAVYYCTFPGVVGRGGFDYWGQGTLVTVSS
VL: DIVMTQSPDSLAVSLGEGATINCMSSQSVLFSSNNKNYLAWYQQKPGQPPKLLFYWASTRESGVPDRFGGSGSGTDFSLTINSLQTEDVAVYYCLQYYSIPWTFGQGTKVEIKR
notes: Fully human anti-human TrkB agonist antibody, human IgG4 Fc; also called H4H9814P-L1
B3: H4H9816P2 (antibody, human IgG4 S228P, kappa, V domains shown)
VH: EVQLVESGGGLVQPGGSLTLSCAASGFNFRDYEMIWVRQTPGKGLEWISYISNSGYTIYYADSVKGRFTISRDNARNSIYLQVNSLRAEDTAVYYCSRRTTMIRGIRAYYYYGLDVWGQGTTVTVSS
VL: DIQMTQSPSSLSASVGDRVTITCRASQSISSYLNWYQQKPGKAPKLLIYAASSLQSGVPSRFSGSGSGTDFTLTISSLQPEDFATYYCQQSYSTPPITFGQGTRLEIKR
notes: Fully human anti-human TrkB agonist antibody, human IgG4 Fc; also called H4H9816P-L1
B4: H1M8037C (antibody, mouse IgG1, kappa, V domains shown)
VH: QVQLVQSGAEVKKPGASVKVSCKASGYTFTNYDIIWVRQAPGQGLEWMGYINPYNDGTKYNEKFKGRVTMTRDTSTSTVYMELSSLRSEDTAVYYCARLLKYRRFRYYAIDYWGQGTTVTVSS
VL: DIQMTQSPSSLSASVGDRVTITCRTSENVYSNLAWYQQKPGKAPKLLIYAASNLQSGVPSRFSGSGSGTDYTFTISSLQPEDIATYYCQHFWGSPFTFGQGTKLEIKR
notes: captured by anti-mFc in SPR; also called Comparator; comparator anti-TrkB monoclonal antibody
B5: M2aM14173N (antibody, mouse IgG2a, kappa, V domains shown)
VH: NVSLVESGGGSVKPGGSLQLSCAASGFTFSSSAMSWIRQTPEMRLEWVATISDRGSYTYYPDSVEGRFTISRDNAKNILYLQMSHLMSEDTAMYYCARGKGEKAYYTAFFAYWGQGSLVTVSA
VL: DIQMTQSPASLSASVGETVTITCRASENIYSYLAWYQQKPGKSPHLLVHNAETLAEGVPSRFSGSGSGPQFSLKINSLQPGDSGTYYCQHHYSSPWTFGGGTKLEIKR
notes: Anti-mouse TrkB antibody from hybridoma, mouse IgG2a Fc; also called surrogate anti-mouse TrkB antibody
B6: M2aM14179N (antibody, mouse IgG2a, kappa, V domains shown)
VH: EVQLQQSGPELVKPGASVKISCKASGYTLTDYYMNWVKQSHGKSLEWIGDINPNNGGTSYNQKFKGKATLTVDKSSSTAYMELRSLTSEDSAVYYCARGAYYSNYFDYWGQGTTLTVSS
VL: DIVMSQSPSSLAVSAGEKVTMSCKSSQSLLNSRTRKNYLAWYQQKPGQSPKLLIYWASTRESGVPDRFTGSGSGTDFTLTISSVQAEDLAVYYCKQSYILFTFGSGTQLEIKR
notes: as for B5

Assays:
[1] = biological target: T1, human TrkB extracellular domain (aa Cys32-His430) expressed with the Fc portion of human IgG1 at the … (human); experiment: competition ELISA, 500 pM hTrkB-hFc pre-mixed with mAb, plate-coated hBDNF
T1 construct: also called hTrkB-hFc; hTrkB.hFc
T1 sequence (chain, as listed by the source limits assumed): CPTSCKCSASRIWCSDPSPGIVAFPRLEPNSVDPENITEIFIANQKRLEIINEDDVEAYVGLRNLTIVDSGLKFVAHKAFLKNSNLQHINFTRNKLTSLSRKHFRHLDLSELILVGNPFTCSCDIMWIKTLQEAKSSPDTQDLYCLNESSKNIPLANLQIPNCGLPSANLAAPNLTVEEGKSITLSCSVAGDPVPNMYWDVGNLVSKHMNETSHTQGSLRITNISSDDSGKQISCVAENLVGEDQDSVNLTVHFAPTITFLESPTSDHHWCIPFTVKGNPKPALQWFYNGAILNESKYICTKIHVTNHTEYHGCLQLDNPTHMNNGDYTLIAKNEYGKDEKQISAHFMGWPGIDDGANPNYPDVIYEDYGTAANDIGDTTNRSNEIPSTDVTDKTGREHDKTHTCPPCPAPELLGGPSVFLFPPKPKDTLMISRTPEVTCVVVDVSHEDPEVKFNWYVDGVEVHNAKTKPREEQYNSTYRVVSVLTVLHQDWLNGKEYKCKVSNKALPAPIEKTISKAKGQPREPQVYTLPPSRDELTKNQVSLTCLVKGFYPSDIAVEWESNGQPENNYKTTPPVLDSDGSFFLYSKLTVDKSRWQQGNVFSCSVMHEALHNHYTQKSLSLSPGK
Description: (§1) Experiments were carried out using the following procedure. Human BDNF or NT-4 were separately coated at a concentration of 0.5 μg/mL or 2 μg/mL, respectively, in PBS on a 96-well microtiter plate overnight at 4° C. […] Blocking solution and dilution buffer contained 5% (w/v) solution of BSA in PBS for assay with BDNF coat, or 0.5% (w/v) solution of BSA in PBS for assay with NT-4 coat. On separate microtiter plates, a constant amount of 500 pM of hTrkB-hFc protein was added to serial dilutions of antibodies with final concentrations ranging from 1.7 pM to 100 nM, and solutions with no antibody present. (The constant concentration of hTrkB-hFc for antibody inhibition assays was selected from the approximate midway point within the linear portion of individual binding curves of hTrkB-hFc to plate-coated hBDNF or hNT-4). After one hour incubation at room temperature, antibody-protein complexes with 500 pM constant concentration of hTrkB-hFc protein were transferred to microtiter plates coated with hBDNF or hNT-4. After one hour incubation at room temperature, the wells were washed, and plate-bound hTrkB-hFc was detected with anti-human Fcγ fragment specific goat polyclonal antibodies conjugated with horseradish peroxidase (JacksonImmunoResearch). The plate was then developed using TMB substrate solution (BD Biosciences) according to manufacturer's recommendation and absorbance at 450 nm was measured on a Victor plate reader (PerkinElmer™).
(§2) The ability of anti-TrkB antibodies to block TrkB binding to BDNF or NT-4 was assessed using two competition sandwich ELISAs. Human TrkB-hFc binding to hBDNF or hNT-4 coated on 96-well microtiter plates, in the presence of serially diluted antibodies or no antibody controls, were detected with HRP-conjugated anti-human Fcγ fragment specific goat polyclonal antibodies. IC₅₀ values were calculated and used as the potency indicator of antibody blocking hTrkB-hFc binding to hBDNF or hNT-4. In addition, the maximum blockade of 500 pM hTrkB-hFc with each antibody at the highest tested concentration was calculated and compared.

[2] = biological target: human TrkB expressed on HEK293/SRE-Luc/hTrkB cells (human, UniProt Q16620 32-822); experiment: cell-based or functional assay
Sequence of human TrkB expressed on HEK293/SRE-Luc/hTrkB cells (Q16620 32-822): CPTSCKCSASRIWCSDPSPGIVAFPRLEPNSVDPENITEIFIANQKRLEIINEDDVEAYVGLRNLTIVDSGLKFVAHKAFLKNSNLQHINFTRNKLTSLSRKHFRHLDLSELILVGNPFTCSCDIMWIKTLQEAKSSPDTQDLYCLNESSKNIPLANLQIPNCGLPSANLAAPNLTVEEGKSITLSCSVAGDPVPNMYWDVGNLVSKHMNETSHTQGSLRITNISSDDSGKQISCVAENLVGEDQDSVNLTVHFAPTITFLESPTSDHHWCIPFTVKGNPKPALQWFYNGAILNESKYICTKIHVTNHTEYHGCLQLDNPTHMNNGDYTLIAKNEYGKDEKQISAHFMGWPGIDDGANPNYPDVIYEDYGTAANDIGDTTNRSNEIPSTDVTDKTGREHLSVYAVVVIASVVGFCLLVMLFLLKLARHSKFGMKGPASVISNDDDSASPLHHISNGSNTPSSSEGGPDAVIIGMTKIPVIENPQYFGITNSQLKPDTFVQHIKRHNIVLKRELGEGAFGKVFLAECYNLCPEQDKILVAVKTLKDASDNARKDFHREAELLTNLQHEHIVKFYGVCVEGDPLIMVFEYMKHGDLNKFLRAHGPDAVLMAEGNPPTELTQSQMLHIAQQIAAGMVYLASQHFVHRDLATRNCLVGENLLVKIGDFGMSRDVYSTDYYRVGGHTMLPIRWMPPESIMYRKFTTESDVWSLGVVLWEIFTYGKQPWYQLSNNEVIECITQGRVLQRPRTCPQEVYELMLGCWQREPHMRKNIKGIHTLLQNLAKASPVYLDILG

[3] = biological target: T1, human TrkB extracellular domain (aa …); experiment: competition ELISA, 500 pM hTrkB-hFc pre-mixed with mAb, plate-coated hNT-4
Description: as §1, §2

mouse TrkB.hFc = biological target: T2, mouse TrkB.hFc (mouse); experiment: BLI Octet, captured mTrkB.hFc, 300 nM mAb (BDNF run)
T2 construct: also called mTrkB.hFc; mTrkB-hFc
T2 sequence (chain, as listed by the source limits assumed): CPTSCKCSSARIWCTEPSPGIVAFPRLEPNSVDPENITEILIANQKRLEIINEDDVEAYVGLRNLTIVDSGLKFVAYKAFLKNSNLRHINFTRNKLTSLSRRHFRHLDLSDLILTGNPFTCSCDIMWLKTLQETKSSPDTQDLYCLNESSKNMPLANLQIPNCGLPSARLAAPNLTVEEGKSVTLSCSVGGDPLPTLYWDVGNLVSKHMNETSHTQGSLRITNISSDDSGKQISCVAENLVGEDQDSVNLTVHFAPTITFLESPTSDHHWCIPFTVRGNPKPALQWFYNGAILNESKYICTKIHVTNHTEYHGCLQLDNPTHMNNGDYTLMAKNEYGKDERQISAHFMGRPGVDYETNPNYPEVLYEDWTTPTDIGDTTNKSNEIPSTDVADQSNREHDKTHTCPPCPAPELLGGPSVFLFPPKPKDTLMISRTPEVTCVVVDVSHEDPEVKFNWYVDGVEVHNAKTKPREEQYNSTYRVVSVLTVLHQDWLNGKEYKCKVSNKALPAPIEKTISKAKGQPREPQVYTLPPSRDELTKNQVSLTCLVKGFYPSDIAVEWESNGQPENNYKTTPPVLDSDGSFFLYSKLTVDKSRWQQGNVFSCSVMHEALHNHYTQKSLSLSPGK
Description: Blocking of BDNF or NT-4 from binding to TrkB by anti-human TrkB or anti-mouse TrkB antibodies was evaluated using a real-time bio-layer interferometry (BLI) based Octet HTX instrument. The entire study was performed in 10 mM HEPES pH 7.4, 300 mM NaCl, 3 mM EDTA, 1 mg/mL BSA, 0.02% NaN3 and 0.05% v/v Surfactant Tween-20 (HBS-EBT running buffer) at 25° C. All the samples were dispensed in a 384 tilted well plate and the plate was placed on the orbital shaker with the shake speed of 1000 rpm. hTrkB.mFc was captured on anti-mFc (AMC) Octet sensors while hTrkB.hFc or mTrkB.hFc were captured on anti-hFc (AHC) Octet sensors by dipping in wells containing 10 μg/mL of TrkB reagents for 2 minutes. hTrkB.mFc or hTrkB.hFc captured Octet biosensors were saturated by dipping in wells containing 300 nM of different TrkB mAbs for 4 minutes followed by dipping Octet biosensors in wells containing 20 nM of BDNF, hNT-4, or mNT-4 for 2 minutes. Binding of BDNF, hNT-4, or mNT-4 to the complex of TrkB and different TrkB mAbs was determined using Scrubber 2.0c analysis software.

[4] = biological target: T3, rat TrkB extracellular domain expressed with a C-terminal myc-myc-hexahistidine tag (rat, UniProt Q63604 32-429); experiment: blocking ELISA, rat TrkB.mmh pre-mixed with mAb, plate-coated BDNF
T3 construct: also called rTrkB.mmH; rTRKB.mmH
T3 sequence (Q63604 other isoform, or with tags, fused parts or gaps): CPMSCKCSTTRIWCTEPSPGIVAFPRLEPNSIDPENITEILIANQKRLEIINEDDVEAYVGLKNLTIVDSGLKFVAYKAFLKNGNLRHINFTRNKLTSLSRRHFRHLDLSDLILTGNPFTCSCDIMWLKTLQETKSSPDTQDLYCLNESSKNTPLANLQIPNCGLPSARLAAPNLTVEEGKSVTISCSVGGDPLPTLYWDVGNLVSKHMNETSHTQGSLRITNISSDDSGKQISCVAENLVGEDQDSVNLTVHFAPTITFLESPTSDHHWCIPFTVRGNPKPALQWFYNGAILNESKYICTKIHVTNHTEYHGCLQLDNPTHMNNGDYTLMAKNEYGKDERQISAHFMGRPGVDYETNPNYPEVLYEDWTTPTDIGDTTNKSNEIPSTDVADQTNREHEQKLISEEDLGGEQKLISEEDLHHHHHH
Description: Experiments were carried out using the following procedure. Human BDNF was coated at a concentration of 0.5 μg/mL (for blocking mouse TrkB.hFc interaction) or 0.3 μg/mL (for blocking rat TrkB.mmh interaction) in PBS on 96-well microtiter plate and incubated overnight at 4° C. […] In a 96-well dilution plate, 850 pM mouse TrkB.hFc or rat TrkB.mmh was mixed with the three-fold serially diluted anti-mouse TrkB antibodies and control antibody. The final antibody concentrations ranged from 1.69 pM to 100 nM. The protein-antibody mix was incubated at room temperature (RT) for 1 hour. The pre-bound mix was then transferred in duplicates to microtiter plates coated with BDNF. A control containing assay buffer alone was included to calculate the baseline of the assay. The ELISA plates were incubated at RT for 1 hour and then washed with plate washing solution. Plate-bound mouse TrkB.hFc was detected with HRP-conjugated goat anti-human Fcγ fragment specific antibody (Jackson Immunoresearch) and rat TrkB.mmh was detected with HRP-conjugated anti-histidine antibody (Qiagen). The plates were incubated with detection antibody for 1 hour at RT and then washed with plate washing solution. The assay plates were developed with TMB colorimetric substrates according to the manufacturer's recommended procedure.
The absorbance at 450 nm for each well was recorded and plotted as a function of the concentration of antibody. Data was analyzed in GraphPad Prism software using a four-parameter logistic equation over an 11-point dose response curve and IC₅₀ values were calculated. […] Percent blockade at maximum concentration of the antibody tested was calculated as an indicator of the ability of the antibodies to block the binding of TrkB to BDNF on the plate relative to the baseline of the assay. Binding signal of 850 pM mouse or rat TrkB in absence of the antibody was defined as 100% binding or 0% blocking. The baseline signal of assay buffer alone was defined as 0% binding or 100% blocking.

| Binder | % Blockade with 100 nM antibody [1] | IC50 [1] | Activation (%), SRE-luciferase, 100 pM BDNF [2] | Activation (%), SRE-luciferase, No BDNF [2] | EC50 (M), SRE-luciferase, 100 pM BDNF [2] | EC50 (M), SRE-luciferase, No BDNF [2] | % Blockade with 100 nM antibody [3] | IC50 [3] | mAb Binding (nm) (mouse TrkB.hFc) | % Blockade with 100 nM antibody [4] | IC50 [4] |
| --- | --- | --- | --- | --- | --- | --- | --- | --- | --- | --- | --- |
| B1 | 93% | 0.15 nM | 77% | 88% | 7.6e-11 M | 8.2e-11 M | 80% | 0.18 nM |  |  |  |
| B2 | 6% |  | 80% | 92% | 4.9e-11 M | 3.5e-11 M | 38% |  |  |  |  |
| B3 | -56% |  | 78% | 90% | 4.5e-11 M | 6.3e-11 M | -123% |  |  |  |  |
| B4 | 97% | 0.17 nM | 79% | 78% | 1.1e-10 M | 7.6e-11 M | 95% | 0.045 nM | 0.42 nm | 83.3% | 1.42 nM |
| B5 |  |  |  |  |  |  |  |  | 0.42 nm | 80.7% | 3.81 nM |
| B6 |  |  |  |  |  |  |  |  | 0.42 nm | -38.1% |  |
